# B1: dmGBP3: glucose-binding protein from Deinococcus maricopensis, SEQ ID NO: 11 (protein)
# chain: MKLEIFSWWSGDEGPALEALVKLYKQKYPSVDVVNATVAGGAGTNAKAVLKTRMLGGDPPDSFQAHAGQELIGTWVVANRMEDLSSLFKSEGWTTKFPKDLLPLISSKGGIWSVPVNVHRSNVMWYIPANLKKWGVTAPKTWDQFLTTAKTLKTKNVTPLALGENWTQQHLWESVAVGTLGAQGWQNLWSGKLKFTDPKVVKVWDTFGKVLDATNKDASGLSWQQATDRVVNGQAAFNIMGDWAAGYLSTTKKLKPGTGFGWAPSPSTSGTFIFLADSFGLPKGAKDRAEALSWLKLLGSKQGQDTFNPLKGSIAARVDSDLSKYSTYSQSAAKDWKSNKIVGSLTHGAVAPESFTSTFGTVIDAFVASRNAQVAAATTQQLADKAGLGKGGSHHHHHH
# modifications: dmGBP3 (with signal peptide replaced with M and a GGSHHHHHH at C-terminus)
# B2: W244F A: tsGBP2.13C.W244F (SEQ ID NO: 48) Acrylodan conjugate (conjugate)
# chain: MKLEIFSWWAGDCGPALEALIRLYKQKYPGVEVINATVTGGAGVNAKAVLKTRMLGGDPPDTFQVHAGQELIGTWVVADRMEDLTSLFRQEGWLQAFPKGLIDLLSYKGGIWSVPVNIHRSNVMWYIPAKLKEWGVTPPKTWAEFLATAQTLKRKGLEAPLALGENWTQQHLWESVALATLGADGWNNLWSGKLKFTDPKAVAVWETFGKVLDAANKDAAGLSWQQAVDRVVQGKAAFNIMGDFAAGYMSTTLKLKPGTDFAWTPSPGTSGIFMMLSDSFGLPKGAKNRQNAINWLKLVGSKEGQDTFNPLKGSIAARLDSDPAKYNAYGQSAMKDWKSNRIVGSLVHGAVAPESFMSQFGTVMEIFLQSRNPQAAANAAQAIANQVGLGRGGSHHHHHH
# modifications: Acrylodan conjugate; tsGBP2.13C.W244F (13C, 244F double substitution mutant with signal peptide replaced with M and a GGSHHHHHH at C-terminus)
# Columns and labels:
# [1] = ligand-free protein; SYPRO Orange, Roche LightCycler
# Protocol: Eight homologs that were predicted to be glucose-binding proteins (FIG. 4, Table 3) were selected to probe different degrees of sequence identity to the ttGBP1 seed, and their glucose-binding properties were determined experimentally. These experiments comprised four successive steps: • 1. Synthetic gene construction. The amino acid sequence of the homology leads were backtranslated into DNA sequences. These were optimized for directing heterologous cytoplasmic expression of the protein homologues in E. coli, using either the OrfOpt or OrfMorph programs. These programs predict mRNA sequences that direct high-level protein expression in E. coli. The predicted gene sequences were assembled de novo from synthetic oligonucleotides. • 2. Heterologous protein expression of the homologues in E. coli. Plasmids carrying the synthetic expression constructs (see above) were transformed into KRX competent cells (Promega). Protein production was induced in bacterial cultures of these cultures, as described in the Materials and Methods. • 3. Purification of successfully expressed protein using immobilized metal affinity chromatography. • 4. Verification of glucose binding. Determination of the glucose-binding properties of the purified proteins using a thermal stability shift assay.
# Analysis of glucose-binding properties using thermal melts. The thermal stability of purified GBP candidate proteins was determined by measuring the temperature-dependence of the fluorescence signal of an extrinsically added dye, SYPRO, using a Roche LightCycler (Layton and Hellinga, 2010, Biochemistry, 49, 10831-41). The total fluorescence intensity, S, is given by S=βFfF+βUfU 11 where fF and fU are the fractions of protein in the folded and unfolded states, respectively, and βF and βU the fluorescence baselines of these two states. To get the fractions of the two states, we have
# [formula] where KU(T) is the temperature-dependent unfolding equilibrium constant, which by the van't Hoff approximation is given by
# [formula] Where T is the temperature, Tm, the unfolding reaction transition mid-point temperature, and ΔHU the enthalpy of unfolding.
# [2] = Immobilization on Ni-NTA magnetic beads, drying and accelerated aging of sensor; assay type: physicochemical
# Protocol: The magnetic beads coated with immobilized tsGBP13C_ 244F.Acrylodan were dried by incubation at 50° C. for 20 minutes, using an aqueous ammonium bicarbonate buffer. […] The dried beads were aged in situ inside fully assembled sample-handling cartridges by incubation for up to 7 days at 25° C., 37° C., and 50° C. in the dark. Fluorescence and glucose-responsive properties were tested in cartridges stored for 1, 2 and 7 days. […] The tsGBP2-based FRSs therefore are sufficiently robust to be handled at ambient temperatures in a desiccated state, greatly simplifying manufacturing, distribution, and long-term storage conditions.
Molecule,Thermostability ^apoTm [1] [°C],"stability properties upon rehydration after drying ([2]; beads dried at 50° C. for 20 minutes, determined up to 100° C.)","fluorescence ratio in the absence of glucose and glucose affinities after aging ([2]; dried beads stored 1, 2 and 7 days at 25° C., 37° C., and 50° C. in the dark)","protein stability on beads compared with solution ([2]; immobilized via C-terminal hexa-histidine tag on Ni-NTA magnetic beads, measured up to 100° C.)"
B1,47,,,
B2,,recovered upon rehydration,remained approximately unchanged,not perturbed

# From patent US11402384B2 (Duke University, priority 2015, dated 2022)
